Test results published in patent publication US20250376518A1 (UNIVERSITE DE MONTPELLIER, published 2025).

Assays:
[1] = target: T1, rat SNAP-tagged mGlu2 receptor (wild-type rat mGlu2 subunit with an HA-tag and a SNAP inserted just after the … (rat, UniProt P31421 19-872, SNAP tag labelled with SNAP-Lumi4-Tb in the TR-FRET binding assay)); experiment: cell-based or functional assay
[2] = target: T1, rat SNAP-tagged mGlu2 receptor …; experiment: TR-FRET saturation binding on HEK293 cells with Lumi4-Tb-labelled rat SNAP-mGlu2, anti-6His-d2; inactive conformation (1 uM LY341495)
Protocol: (§1) Each datapoint represents the mean±s.d. of an individual experiment performed in triplicate.
(§2) Binding experiments by TR-FRET. HEK293 cells (ATCC CRL-1573) were transfected with rat SNAP-tagged mGlu2 receptors (Maurel et al. Nature Methods 2008). 24 h after transfection, cells were labeled in 150 mm cell culture plate with 100 nM SNAP-Lumi4Tb in DMEM-GlutaMAX for 1 h at 37° C., and then washed 3 times with Krebs buffer (10 mM Hepes pH7.4, 146 mM NaCl, 4.2 mM KCl, 1 mM CaCl2, 0.5 mM MgCl2, 5.6 mM glucose and bovine serum albumin 0.1%). Cells were detached using cell dissociation buffer (Sigma aldrich) transferred at 10 000 cells per well in a white 384-well plate (Greiner bio-one, PS, F-bottom, small volume, Hibase, medium binding). Increasing concentration of His-tagged nanobodies together with either 1 μM LY379268 (Tocris, Bio-techne, France) or 1 μM LY341495 (Tocris, Bio-techne, France) and with 200 nM of anti-6His-d2 (Tocris, Bio-techne, France) were applied on Lumi4Tb-labeled cells in a final volume of 20 μL and incubated overnight at 20° C. FRET signal was determined by measuring the sensitized acceptor emission (665 nm) and Tb donor emission (620 nm) using a 50 μs delay and 450 us integration time upon excitation at 337 nm on a PHERAstar FS plate-reader (BMG LabTech, Ortenberg, Germany). TR-FRET (or HTRF) ratio (665 nm/620 nm×10⁴, Cisbio patent 8 U.S. Pat. No. 5,527,684) was calculated for preventing interferences due to medium variability and chemical compound or to normalize experiments when using cells expressing different receptor levels.

[3] = target: T1, rat SNAP-tagged mGlu2 receptor …; experiment: TR-FRET saturation binding on HEK293 cells with Lumi4-Tb-labelled rat SNAP-mGlu2, anti-6His-d2; active conformation (1 uM LY379268)
Protocol: as §1, §2

[4] = target: T1, rat SNAP-tagged mGlu2 receptor …; experiment: cell-based or functional assay; remark: listed apart in the source
[5] = target: T1, rat SNAP-tagged mGlu2 receptor …; experiment: TR-FRET saturation binding on HEK293 cells with SNAP-mGlu2, in the presence of agonist LY379268 1 uM; reference IGF1168
Protocol: as §2, with “Increasing concentration of His-tagged nanobodies together with either 1 μM LY379268 (Tocris, Bio-techne, France) or 1 μM LY341495 (Tocris, Bio-techne, France) and with 200 nM of anti-6His-d2 (Tocris, Bio-techne, France) were applied on Lumi4Tb-labeled cells in a final volume of 20 μL and incubated overnight at 20° C.” left out, “levels. […]” for “levels.”

[6] = target: T1, rat SNAP-tagged mGlu2 receptor …; experiment: apparent affinity, TR-FRET saturation binding on HEK293 cells with SNAP-mGlu2, in the presence of agonist LY379268 1 uM
Protocol: as §2, with “Increasing concentration of His-tagged nanobodies together with either 1 μM LY379268 (Tocris, Bio-techne, France) or 1 μM LY341495 (Tocris, Bio-techne, France) and with 200 nM of anti-6His-d2 (Tocris, Bio-techne, France) were applied on Lumi4Tb-labeled cells in a final volume of 20 μL and incubated overnight at 20° C.” left out, “levels. […]” for “levels.”

[7] = target: T2, mouse mGlu2 receptor in brain tissue sections of wild-type C57BL/6J mice (mouse, UniProt Q14BI2 19-872); experiment: ex vivo immunohistofluorescence on mouse brain sections; no labeling in sections from mGlu2-/- mouse
T2 construct: whole, on cells; Endogenous receptor in fixed tissue sections; mGlu2-/- mouse sections were the negative control
T2 sequence (Q14BI2 19-872): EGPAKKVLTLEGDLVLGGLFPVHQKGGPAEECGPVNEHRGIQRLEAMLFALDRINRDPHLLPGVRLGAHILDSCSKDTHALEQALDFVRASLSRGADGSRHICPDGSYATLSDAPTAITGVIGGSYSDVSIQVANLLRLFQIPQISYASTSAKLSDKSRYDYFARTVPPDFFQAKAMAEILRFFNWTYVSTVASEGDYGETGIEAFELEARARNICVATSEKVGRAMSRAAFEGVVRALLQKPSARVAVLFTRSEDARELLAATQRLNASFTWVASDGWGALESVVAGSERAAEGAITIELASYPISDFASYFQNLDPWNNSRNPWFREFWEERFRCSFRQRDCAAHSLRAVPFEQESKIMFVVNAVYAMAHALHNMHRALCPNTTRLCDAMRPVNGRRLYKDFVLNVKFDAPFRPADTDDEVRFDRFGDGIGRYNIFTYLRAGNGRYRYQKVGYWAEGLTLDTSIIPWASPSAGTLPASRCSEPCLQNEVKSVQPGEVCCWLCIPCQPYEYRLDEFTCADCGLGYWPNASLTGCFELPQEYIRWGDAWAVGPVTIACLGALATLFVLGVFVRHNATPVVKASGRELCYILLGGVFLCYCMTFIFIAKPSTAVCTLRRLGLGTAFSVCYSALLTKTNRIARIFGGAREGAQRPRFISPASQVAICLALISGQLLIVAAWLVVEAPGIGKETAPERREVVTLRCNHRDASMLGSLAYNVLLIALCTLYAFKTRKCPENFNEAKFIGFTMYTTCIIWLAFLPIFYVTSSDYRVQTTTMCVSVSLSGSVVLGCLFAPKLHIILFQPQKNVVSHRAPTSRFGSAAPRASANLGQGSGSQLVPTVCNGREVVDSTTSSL
Protocol: Histological processing of brains. Wild-type C57BL/6J mice were purchased from Janvier Labs and brains from mGlu2−/− mice were kindly provided by Dr. Gonzalez-Maeso. Mice were anesthetized (Euthasol Vet 8%, Alcyon, Pau, France) and sacrificed by a cardiac perfusion of 4% paraformaldehyde (PFA). Brains were extracted and fixed in a 4% PFA solution (Euromedex, Souffelweyersheim, France) overnight at 4° C. Brains were rinsed in PBS and cryoprotected in a 30% sucrose solution for 4 days at 4° C. Brains were then included in OCT (Tissue-Tek, Sakura Finetek, Villeneuve d′Asq, France), quickly frozen in acetone chilled on dry ice and conserved at −80° C. until use. Frozen brains included in OCT, were put at −20° C. 24 h prior cryo-sectioning. They were then mounted on a cryostat (Leica, Nanterre, France) and 16 um coronal or sagittal sections were performed and directly mounted on Superfrost Plus glass slides (Microm) and kept at −20° C., until use. For immunohistofluorescence experiments, coronal and sagittal brain tissue sections of WT and mGlu2^{-/-} mice were blocked 1 h at 25° C. with a blocking solution (3% BSA, 0.1% Triton X100 in PBS) and incubated with IGF1202-d2 (200 nM), overnight at 4° C., to label mGlu2 receptors. Sections were washed with PBS with distilled water and mounted using […]

T1 sequence (P31421 19-872): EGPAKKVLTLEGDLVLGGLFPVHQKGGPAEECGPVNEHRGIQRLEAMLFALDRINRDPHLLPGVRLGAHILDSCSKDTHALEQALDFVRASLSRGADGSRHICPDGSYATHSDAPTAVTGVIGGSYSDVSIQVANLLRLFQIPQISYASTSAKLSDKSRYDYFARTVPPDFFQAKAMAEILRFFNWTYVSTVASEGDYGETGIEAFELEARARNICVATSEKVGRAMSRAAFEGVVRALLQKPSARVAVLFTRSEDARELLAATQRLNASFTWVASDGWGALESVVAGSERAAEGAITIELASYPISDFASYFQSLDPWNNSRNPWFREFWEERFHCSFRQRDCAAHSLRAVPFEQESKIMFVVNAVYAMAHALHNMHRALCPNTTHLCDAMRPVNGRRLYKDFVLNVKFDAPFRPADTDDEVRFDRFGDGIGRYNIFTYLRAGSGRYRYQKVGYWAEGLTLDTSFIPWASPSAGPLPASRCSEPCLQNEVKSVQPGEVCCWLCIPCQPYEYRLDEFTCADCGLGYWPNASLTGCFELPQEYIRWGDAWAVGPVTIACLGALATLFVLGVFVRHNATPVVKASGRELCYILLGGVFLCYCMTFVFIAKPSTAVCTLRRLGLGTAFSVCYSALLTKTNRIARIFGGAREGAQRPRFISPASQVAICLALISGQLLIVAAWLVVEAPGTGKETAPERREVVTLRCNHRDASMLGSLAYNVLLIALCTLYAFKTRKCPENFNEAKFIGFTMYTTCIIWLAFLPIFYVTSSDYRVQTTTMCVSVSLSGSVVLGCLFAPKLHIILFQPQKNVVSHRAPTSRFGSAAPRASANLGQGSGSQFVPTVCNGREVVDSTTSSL

| Binder | pEC50 of the PAM effect on G protein coupling (IP1 accumulation with 0.6 nM LY379268, EC20) [1] | pKd [2] | pKd [3] | pEC50, PAM potency (IP1 accumulation) [4] | fold increase in the apparent affinity compared to IGF1168 [5] [fold] | Kd [6] [nM] | binding result [7] |
| --- | --- | --- | --- | --- | --- | --- | --- |
| IGF-1252 (IGF-1159 HcAb IGF-1168) (VHH, Bivalent biparatopic nanobody, two VHH in tandem) QVQLVQSGGGLVQAGGSLRLSCAASGRTFSSFAMAWFRQAPGKEREFVAAISWSGSTGHADSVKGRFTITRDNAKNTVFLQMNSLKPEDTAVYYCALGKGSSYYYSPSGYDYWGQGTQVTVSSEPKIPQPQPKPQPQPQPQPQPKPQPKPEPQVQLVQSGGGLVQAGGSLRLSCAASVRFFSINTMGWYRQAPGKQRELVADITSSGSTNYADSGKGRFTISRDNAKNTVYLQMNRLKPEDTAVYYCHADYKYTTHNTAWGQGTQVTVSSLEHHHHHH | 7.94 -log10 M | 8.49 -log10 M | 8.77 -log10 M |  |  |  |  |
| IGF-1261 (IGF-1168 GS IGF-1168) (VHH) QVQLVQSGGGLVQAGGSLRLSCAASVRFFSINTMGWYRQAPGKQRELVADITSSGSTNYADSGKGRFTISRDNAKNTVYLQMNRLKPEDTAVYYCHADYKYTTHNTAWGQGTQVTVSSGGGGSGGGGSGGGGSQVQLVQSGGGLVQAGGSLRLSCAASVRFFSINTMGWYRQAPGKQRELVADITSSGSTNYADSGKGRFTISRDNAKNTVYLQMNRLKPEDTAVYYCHADYKYTTHNTAWGQGTQVTVSSLEHHHHHH | 7.62 -log10 M |  | 8.51 -log10 M |  |  |  |  |
| IGF-1202 (IGF-1168 HcAb IGF-1159), biparatopic IGF1202-tag6xHIS (VHH) QVQLVQSGGGLVQAGGSLRLSCAASVRFFSINTMGWYRQAPGKQRELVADITSSGSTNYADSGKGRFTISRDNAKNTVYLQMNRLKPEDTAVYYCHADYKYTTHNTAWGQGTQVTVSSEPKIPQPQPKPQPQPQPQPQPKPQPKPEPQVQLVQSGGGLVQAGGSLRLSCAASGRTFSSFAMAWFRQAPGKEREFVAAISWSGSTGHADSVKGRFTITRDNAKNTVFLQMNSLKPEDTAVYYCALGKGSSYYYSPSGYDYWGQGTQVTVSSLEHHHHHH | 8.81 -log10 M | 8.87 -log10 M | 9.27 -log10 M | 9.16 -log10 M | 10 | 0.3 |  |
| IGF1202-d2 (red-labeled IGF1202) (VHH, d2 fluorophore coupled with d2-NHS, conditions set for 2 to 3 fluorophores per nanobody; sites not stated, also called red-labled IGF1202) QVQLVQSGGGLVQAGGSLRLSCAASVRFFSINTMGWYRQAPGKQRELVADITSSGSTNYADSGKGRFTISRDNAKNTVYLQMNRLKPEDTAVYYCHADYKYTTHNTAWGQGTQVTVSSEPKIPQPQPKPQPQPQPQPQPKPQPKPEPQVQLVQSGGGLVQAGGSLRLSCAASGRTFSSFAMAWFRQAPGKEREFVAAISWSGSTGHADSVKGRFTITRDNAKNTVFLQMNSLKPEDTAVYYCALGKGSSYYYSPSGYDYWGQGTQVTVSSLEHHHHHH |  |  |  |  |  |  | binds |
| IGF-1251 (IGF-1159 GS IGF-1168) (VHH, Bivalent biparatopic nanobody, two VHH in tandem) QVQLVQSGGGLVQAGGSLRLSCAASGRTFSSFAMAWFRQAPGKEREFVAAISWSGSTGHADSVKGRFTITRDNAKNTVFLQMNSLKPEDTAVYYCALGKGSSYYYSPSGYDYWGQGTQVTVSSGGGGSGGGGSGGGGSQVQLVQSGGGLVQAGGSLRLSCAASVRFFSINTMGWYRQAPGKQRELVADITSSGSTNYADSGKGRFTISRDNAKNTVYLQMNRLKPEDTAVYYCHADYKYTTHNTAWGQGTQVTVSSLEHHHHHH | 7.65 -log10 M | 8.54 -log10 M | 8.99 -log10 M |  |  |  |  |
| IGF-1262 (IGF-1168 HcAb IGF-1168) (VHH) QVQLVQSGGGLVQAGGSLRLSCAASVRFFSINTMGWYRQAPGKQRELVADITSSGSTNYADSGKGRFTISRDNAKNTVYLQMNRLKPEDTAVYYCHADYKYTTHNTAWGQGTQVTVSSEPKIPQPQPKPQPQPQPQPQPKPQPKPEPQVQLVQSGGGLVQAGGSLRLSCAASVRFFSINTMGWYRQAPGKQRELVADITSSGSTNYADSGKGRFTISRDNAKNTVYLQMNRLKPEDTAVYYCHADYKYTTHNTAWGQGTQVTVSSLEHHHHHH | 7.2 -log10 M |  | 8.23 -log10 M |  |  |  |  |
| IGF-1201 (IGF-1168 GS IGF-1159) (VHH, Bivalent biparatopic nanobody, two VHH in tandem) QVQLVQSGGGLVQAGGSLRLSCAASVRFFSINTMGWYRQAPGKQRELVADITSSGSTNYADSGKGRFTISRDNAKNTVYLQMNRLKPEDTAVYYCHADYKYTTHNTAWGQGTQVTVSSGGGGSGGGGSGGGGSQVQLVQSGGGLVQAGGSLRLSCAASGRTFSSFAMAWFRQAPGKEREFVAAISWSGSTGHADSVKGRFTITRDNAKNTVFLQMNSLKPEDTAVYYCALGKGSSYYYSPSGYDYWGQGTQVTVSSLEHHHHHH | 8.25 -log10 M | 8.95 -log10 M | 9.34 -log10 M |  |  |  |  |
| IGF-1168 nanobody (VHH, PAM nanobody, mGlu2 specific; not shown: His tag (nanobodies in the assay are His-tagged)) VHH: QVQLVQSGGGLVQAGGSLRLSCAASVRFFSINTMGWYRQAPGKQRELVADITSSGSTNYADSGKGRFTISRDNAKNTVYLQMNRLKPEDTAVYYCHADYKYTTHNTAWGQGTQVTVSS |  |  |  | 7.22 -log10 M |  | 4.93 |  |
